Measured values from publication PMC10128069, “A Fijivirus Major Viroplasm Protein Shows RNA-Stimulated ATPase Activity by Adopting Pentameric and Hexameric Assemblies of Dimers” (mBio, 2023).

How the values were obtained:
[1] = target: P9-1 (Mal de Rio Cuarto virus (MRCV)) (UniProt D9U542); experiment: competition EMSA; details: 10 mM Tris-HCl, 50 mM KCl, 0.5 mM EDTA, 10% glycerol, 1 mM DTT, pH 7.5; 30 min at room temperature; 6.5% native PAGE at 4 C
P9-1 = P9-1 (Mal de Rio Cuarto virus (MRCV), UniProt D9U542 1-337); experiment: EMSA; 5 uM probe; concentration-dependent, 1, 3, 6 uM protein; 10 mM Tris-HCl, 50 mM KCl, 0.5 mM EDTA, 10% glycerol, 1 mM DTT, pH 7.5; 30 min at room temperature; 6.5% native PAGE at 4 C; details: protein: recombinant; tags: N-terminal 52-residue tag (6xHis/Xpress/EK); label: 5'-HEX; single strand
SEC-MALS = target: the molecule itself; experiment: SEC-MALS
SAXS = target: the molecule itself; experiment: SAXS
cryo-EM structure = target: the molecule itself; experiment: cryo-EM structure
crystal structure = target: the molecule itself; experiment: crystal structure

poly(A), average 250 nt was tested, and the binding signal (fold decrease of ssDNA complex) [1] was 10.

GACCTCGCTCTCTGTTTCTCAT (ssDNA) [22-nt HEX-ssDNA probe]: binds (P9-1).

B1: P9-1 major viroplasm protein of mal de Río Cuarto virus (MRCV), full-length, expressed in E. coli from pRSET (natural protein)
chain: MADLERRTFGSYKIEEITIKNDQQQKTTNQQQISNNEQRISTKKIPILDDGIFDLINYLLNGTHFDKTHYCGFDYSHLPTLERDFNTASNYVSENYSIIVEEIDLNKYERSESISLKSPDFTVVLEYFKKHVEGQTEQEENKTESTSSELPAKIVRELPLLPIMCRESEDSISEDILEGEGAVIQVLKMFMKGFLVHLGENPNSYDRQLTIEKYRPLLISIIGYEFTVGTRATHTKINHIYYQLATFDNYPFDLLRFQLQSLIDTPNVIKERIEKDGLFKVITTTNARGQYQSVLLRGINGSESYLNLKRYRKFKVRVVGNVDNVIKNDFSSLKLDV
notes: source: E. coli BL21, purified (IMAC on Ni-NTA, SEC on Superdex 200); copies: 10 or 12
In the case of B1, the “stoichiometry N” value (SEC-MALS) is reported as ~10.4 protomers, the “stoichiometry N” value (SAXS) is reported as 10 and the “stoichiometry N” value (cryo-EM structure) is reported as 12.

B2: P9-1ΔC-arm (residues 1 to 313 of MRCV P9-1, lacking the 24 C-terminal residues) (domain or fragment)
chain: MADLERRTFGSYKIEEITIKNDQQQKTTNQQQISNNEQRISTKKIPILDDGIFDLINYLLNGTHFDKTHYCGFDYSHLPTLERDFNTASNYVSENYSIIVEEIDLNKYERSESISLKSPDFTVVLEYFKKHVEGQTEQEENKTESTSSELPAKIVRELPLLPIMCRESEDSISEDILEGEGAVIQVLKMFMKGFLVHLGENPNSYDRQLTIEKYRPLLISIIGYEFTVGTRATHTKINHIYYQLATFDNYPFDLLRFQLQSLIDTPNVIKERIEKDGLFKVITTTNARGQYQSVLLRGINGSESYLNLKRYRK
notes: source: E. coli BL21, purified (IMAC on Ni-NTA, SEC on Superdex 200); not shown: His6, N-terminal, kept
With B2 the “stoichiometry N” value (SEC-MALS) was ~2.3 protomers and the “stoichiometry N” value (crystal structure) was 2.
